# Values quoted from earlier work as cited in patent US6204360A, “Retro-inverso thymosin alpha 1 hybrids” (USA Universe Bioengineering, Inc., priority 1999, dated 2001).
# No end group written: not given here.
# Conditions: Rost, Int. J. Clin. Pharmacol. Ther. 37:51, 1999
substance,measurement,value
"thymosin alpha 1 (SDAAVDTSSEITTKDLKEKKEVVEEAEN; ends and bridges not checked; UniProt P06454 2-29, looked up) [TM-alpha1, 28 amino acid acidic peptide purified from thymosin fraction V; immunomodulator]",half-life in vivo,short half-life in vivo
